The chains are these.
T1: MtrA (Mycobacterium tuberculosis H37Rv, UniProt P9WGM7 1-228)
T1 sequence: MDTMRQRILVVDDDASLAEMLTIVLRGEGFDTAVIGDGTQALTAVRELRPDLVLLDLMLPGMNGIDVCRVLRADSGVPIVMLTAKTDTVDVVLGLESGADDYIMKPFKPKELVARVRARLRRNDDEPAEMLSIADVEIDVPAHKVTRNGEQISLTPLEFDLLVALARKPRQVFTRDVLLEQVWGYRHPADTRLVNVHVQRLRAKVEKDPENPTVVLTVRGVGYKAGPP

B1: Rv3859c G20T (dsDNA)
DNA 1: GTTACGTGATCGAATTGTGTTCCAGG
DNA 2: CCTGGAACACAATTCGATCACGTAAC
B2: Rv3859c G20A T21A (dsDNA)
DNA 1: GTTACGTGATCGAATTGTGAACCAGG
DNA 2: CCTGGTTCACAATTCGATCACGTAAC
B3: Rv3859c G20A T21G (dsDNA)
DNA 1: GTTACGTGATCGAATTGTGAGCCAGG
DNA 2: CCTGGCTCACAATTCGATCACGTAAC
B4: Rv3859c G20A T21C (dsDNA)
DNA 1: GTTACGTGATCGAATTGTGACCCAGG
DNA 2: CCTGGGTCACAATTCGATCACGTAAC
B5: Rv3859c G20A (dsDNA)
DNA 1: GTTACGTGATCGAATTGTGATCCAGG
DNA 2: CCTGGATCACAATTCGATCACGTAAC
B6: Rv3859c G20C (dsDNA)
DNA 1: GTTACGTGATCGAATTGTGCTCCAGG
DNA 2: CCTGGAGCACAATTCGATCACGTAAC

Here are results for six molecules from PMC10609481, “Substrate DNA Promoting Binding of Mycobacterium tuberculosis MtrA by Facilitating Dimerization and Interpretation of Affinity by Minor Groove Width”.

The target in the data set is T1, MtrA. Briefly: BLI. To be noted: protein: recombinant; tags: His6 (pET28a, BamHI/XhoI; N-terminal, inferred from stop codon in reverse primer); chain copies: 2; blunt.
With B1, the Kd stood at 4380 µM.
The figure for B2 is 19.5 µM; for B3 it is 15.7 µM; for B4 it is 0.124 µM.
On to B5, for which the Kd came to 0.178 µM.
The figure for B6 is 7120 µM.
